The text below walks through data of publication PMC6508501, “Conserved redox‐dependent DNA binding of ROXY glutaredoxins with TGA transcription factors”.

In data set [1] the target is mTRQ2-MpTGA (Marchantia polymorpha). The data set can be described thus: FRET or BRET; FRET-FLIM; 2in1 vector, donor mTRQ2 on MpTGA, acceptor mVENUS on MpROXY; 40 nuclei of N. benthamiana leaves; mono- or biexponential decay of the donor. Background: Bioluminescence resonance energy transfer reports proximity on the nanometre scale.
In the next data set the target is T1, PAN (…) (Arabidopsis thaliana, UniProt Q9SX27 1-452).
T1 sequence: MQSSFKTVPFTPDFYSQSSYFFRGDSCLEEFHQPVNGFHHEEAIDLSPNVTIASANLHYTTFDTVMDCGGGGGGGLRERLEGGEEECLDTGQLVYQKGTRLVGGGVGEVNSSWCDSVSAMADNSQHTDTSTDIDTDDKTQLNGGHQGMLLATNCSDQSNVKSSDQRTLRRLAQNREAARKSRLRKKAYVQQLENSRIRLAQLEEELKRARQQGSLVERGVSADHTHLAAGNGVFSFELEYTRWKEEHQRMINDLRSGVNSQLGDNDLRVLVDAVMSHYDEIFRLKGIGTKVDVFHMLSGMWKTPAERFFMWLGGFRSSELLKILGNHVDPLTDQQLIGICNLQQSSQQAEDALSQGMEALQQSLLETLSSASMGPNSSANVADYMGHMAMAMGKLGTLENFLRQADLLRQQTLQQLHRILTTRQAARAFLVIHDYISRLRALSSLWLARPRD
The data set can be described thus: EMSA; Redox EMSA per Gutsche & Zachgo 2016 (buffer, salt, pH, temperature not stated); 0.9 mM DTT (red) or 2 mM diamide (ox); 500 ng recombinant protein per reaction; native gel. The conditions noted are these: tags: N-terminal MBP (per Methods), chain copies: 2, label: 5' 6-FAM, blunt. For orientation: A gel shift assay detects complexes by their altered migration in electrophoresis.

The target in the next data set is T2, PAN (…);ROXY1 (Arabidopsis thaliana;Arabidopsis …, UniProt Q9SX27;Q96305 1-452;1-136, |).
T2 sequence 1: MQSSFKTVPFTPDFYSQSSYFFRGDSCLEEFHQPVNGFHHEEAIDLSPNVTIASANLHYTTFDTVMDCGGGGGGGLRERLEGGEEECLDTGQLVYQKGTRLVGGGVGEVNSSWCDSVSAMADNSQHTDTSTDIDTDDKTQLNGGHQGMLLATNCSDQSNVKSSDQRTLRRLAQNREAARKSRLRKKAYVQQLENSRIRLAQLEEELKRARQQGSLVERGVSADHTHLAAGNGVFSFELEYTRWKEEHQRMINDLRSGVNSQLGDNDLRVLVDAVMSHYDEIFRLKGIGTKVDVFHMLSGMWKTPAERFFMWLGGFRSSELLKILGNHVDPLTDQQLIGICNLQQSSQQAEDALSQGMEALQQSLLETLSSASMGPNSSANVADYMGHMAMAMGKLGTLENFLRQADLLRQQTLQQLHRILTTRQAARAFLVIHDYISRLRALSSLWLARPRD
T2 sequence 2: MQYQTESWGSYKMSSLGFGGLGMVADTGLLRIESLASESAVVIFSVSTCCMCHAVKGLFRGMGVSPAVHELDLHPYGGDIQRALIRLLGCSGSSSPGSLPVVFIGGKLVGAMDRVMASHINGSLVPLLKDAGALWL
The data set is described as follows: EMSA supershift; Redox EMSA per Gutsche & Zachgo 2016 (buffer, salt, pH, temperature not stated); 0.9 mM DTT (red) or 2 mM diamide (ox); 500 ng recombinant protein per reaction; native gel. The conditions noted are these: tags: N-terminal MBP (per Methods);MBP, label: 5' 6-FAM, blunt.

The target of the next data set is T3, PAN (…);MpROXY2 (Arabidopsis thaliana;Marchantia …, UniProt Q9SX27;A0A2R6WT88 1-452;1-179, |).
T3 sequence 1: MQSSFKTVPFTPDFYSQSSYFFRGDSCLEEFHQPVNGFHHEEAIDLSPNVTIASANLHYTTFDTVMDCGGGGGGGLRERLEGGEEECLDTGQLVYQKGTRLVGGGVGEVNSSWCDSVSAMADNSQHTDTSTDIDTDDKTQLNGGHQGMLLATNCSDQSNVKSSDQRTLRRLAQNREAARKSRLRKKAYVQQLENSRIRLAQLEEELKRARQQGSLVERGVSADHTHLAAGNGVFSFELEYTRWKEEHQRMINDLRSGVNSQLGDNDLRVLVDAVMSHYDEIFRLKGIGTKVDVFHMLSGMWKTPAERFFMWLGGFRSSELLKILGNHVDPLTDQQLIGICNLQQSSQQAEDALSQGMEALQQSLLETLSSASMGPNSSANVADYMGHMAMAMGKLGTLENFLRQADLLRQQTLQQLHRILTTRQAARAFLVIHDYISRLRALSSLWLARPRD
T3 sequence 2: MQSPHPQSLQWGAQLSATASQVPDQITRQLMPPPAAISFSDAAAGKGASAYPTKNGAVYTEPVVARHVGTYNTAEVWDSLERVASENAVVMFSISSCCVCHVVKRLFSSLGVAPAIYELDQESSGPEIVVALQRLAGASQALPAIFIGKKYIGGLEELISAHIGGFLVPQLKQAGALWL
The description is as above. To be noted: tags: N-terminal MBP (per Methods);N-terminal MBP, label: 5' 6-FAM, blunt.

A further data set concerns the target T4, MpROXY2 (Marchantia polymorpha (ssp. ruderalis, …, UniProt A0A2R6WT88 1-179)).
T4 sequence: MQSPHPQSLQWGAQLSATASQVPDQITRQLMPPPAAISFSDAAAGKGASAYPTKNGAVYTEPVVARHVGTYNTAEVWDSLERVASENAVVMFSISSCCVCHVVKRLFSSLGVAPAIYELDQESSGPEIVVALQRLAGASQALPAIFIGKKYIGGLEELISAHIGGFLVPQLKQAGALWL
The data set is described as follows: EMSA; 0.9 mM DTT or 2 mM diamide; Redox EMSA per Gutsche & Zachgo 2016 (buffer, salt, pH, temperature not stated); 0.9 mM DTT (red) or 2 mM diamide (ox); 500 ng recombinant protein per reaction; native gel. The conditions noted are these: tags: N-terminal MBP, label: 5' 6-FAM, blunt.

mVENUS-MpROXY1 (natural protein): in data set [1], the reduced donor fluorescence lifetime (τDA) is < 2 ns.

Consider mVENUS-MpROXY2 (natural protein), for which the reduced donor fluorescence lifetime (τDA) in data set [1] was < 2 ns.

B1: as-1-like (dsDNA)
DNA 1: CTACGTCACTATTTTACTTACGTCATAG
DNA 2: CTATGACGTAAGTAAAATAGTGACGTAG
B1: the binding result with PAN (…) is “binds”; with PAN (…);ROXY1 it was “binds”; in the data set with PAN (…);MpROXY2, “binds”; with MpROXY2, “no binding”.
